Target: CD40 (UniProt P25942)
Experiment: cell-based or functional assay

EC50 from CD40 activation experiments (bioluminescent CD40 effector CHO cell assay): -1.47 log(µM)
Substance: LOB7/6 (antibody)
